Measurements published in US20210388087A1 (Chugai, published 2021).
Where a chain is given by its changes, count along the chain named.

B1: H183/L072 VL M27eA (antibody, name in Kabat numbering, V domains shown)
VH: QVQLVESGGGLVQPGRSLRLSCAASGFTFSNAWMHWVRQAPGKGLEWVAQIKDKGNAYAAYYAPSVKGRFTISRDDSKNSIYLQMNSLKTEDTAVYYCHYVHYASASTVLPAFGVDAWGQGTTVTVSS
VL: DIVMTQSPLSLPVTPGEPASISCQASQELVHANRNTYLHWYQQKPGQAPRLLIYKVSNRFPGVPDRFSGSGSGTDFTLKISRVEAEDVGVYYCAQGTSVPFTFGQGTKLEIK
notes: Dual-Ig
B2: H183/L072 VL N30H (antibody, name in Kabat numbering, V domains shown)
VH: B1 VH
VL: B1 VL with A32M, N35H
notes: Dual-Ig
B3: H183/L072 VL M27eH (antibody, name in Kabat numbering, V domains shown)
VH: B1 VH
VL: B1 VL with A32H
notes: Dual-Ig
B4: H183/L072 VL N28I (antibody, name in Kabat numbering, V domains shown)
VH: B1 VH
VL: B1 VL with A32M, N33I
notes: Dual-Ig
B5: H183/L072 VL M27eP (antibody, name in Kabat numbering, V domains shown)
VH: B1 VH
VL: B1 VL with A32P
notes: Dual-Ig
B6: H183/L072 VL N28H (antibody, name in Kabat numbering, V domains shown)
VH: B1 VH
VL: B1 VL with A32M, N33H
notes: Dual-Ig
B7: H183/L072 VL N28T (antibody, name in Kabat numbering, V domains shown)
VH: B1 VH
VL: B1 VL with A32M, N33T
notes: Dual-Ig
B8: H183/L072 VL N28R (antibody, name in Kabat numbering, V domains shown)
VH: B1 VH
VL: B1 VL with A32M, N33R
notes: Dual-Ig
B9: H183/L072 VL N30F (antibody, name in Kabat numbering, V domains shown)
VH: B1 VH
VL: B1 VL with A32M, N35F
notes: Dual-Ig
B10: H183/L072 VL N28P (antibody, name in Kabat numbering, V domains shown)
VH: B1 VH
VL: B1 VL with A32M, N33P
notes: Dual-Ig
B11: H183/L072 VL M27eF (antibody, name in Kabat numbering, V domains shown)
VH: B1 VH
VL: B1 VL with A32F
notes: Dual-Ig
B12: H183/L072 VL N28Q (antibody, name in Kabat numbering, V domains shown)
VH: B1 VH
VL: B1 VL with A32M, N33Q
notes: Dual-Ig
B13: H183/L072 VL M27eE (antibody, name in Kabat numbering, V domains shown)
VH: B1 VH
VL: B1 VL with A32E
notes: Dual-Ig
B14: H183/L072 VL N28W (antibody, name in Kabat numbering, V domains shown)
VH: B1 VH
VL: B1 VL with A32M, N33W
notes: Dual-Ig
B15: H183/L072 VL N30M (antibody, name in Kabat numbering, V domains shown)
VH: B1 VH
VL: B1 VL with A32M, N35M
notes: Dual-Ig
B16: H183/L072 VL M27eN (antibody, name in Kabat numbering, V domains shown)
VH: B1 VH
VL: B1 VL with A32N
notes: Dual-Ig
B17: H183/L072 VL N28F (antibody, name in Kabat numbering, V domains shown)
VH: B1 VH
VL: B1 VL with A32M, N33F
notes: Dual-Ig
B18: H183/L072 VL M27eV (antibody, name in Kabat numbering, V domains shown)
VH: B1 VH
VL: B1 VL with A32V
notes: Dual-Ig
B19: H183/L072 VL N28M (antibody, name in Kabat numbering, V domains shown)
VH: B1 VH
VL: B1 VL with A32M, N33M
notes: Dual-Ig
B20: H183/L072 VL N30I (antibody, name in Kabat numbering, V domains shown)
VH: B1 VH
VL: B1 VL with A32M, N35I
notes: Dual-Ig
B21: H183/L072 VL N30K (antibody, name in Kabat numbering, V domains shown)
VH: B1 VH
VL: B1 VL with A32M, N35K
notes: Dual-Ig
B22: H183/L072 VL N28G (antibody, name in Kabat numbering, V domains shown)
VH: B1 VH
VL: B1 VL with A32M, N33G
notes: Dual-Ig
B23: H183/L072 VL N28V (antibody, name in Kabat numbering, V domains shown)
VH: B1 VH
VL: B1 VL with A32M, N33V
notes: Dual-Ig
B24: H183/L072 VL M27eD (antibody, name in Kabat numbering, V domains shown)
VH: B1 VH
VL: B1 VL with A32D
notes: Dual-Ig
B25: H183/L072 VL M27eQ (antibody, name in Kabat numbering, V domains shown)
VH: B1 VH
VL: B1 VL with A32Q
notes: Dual-Ig
B26: H183/L072 VL M27eI (antibody, name in Kabat numbering, V domains shown)
VH: B1 VH
VL: B1 VL with A32I
notes: Dual-Ig
B27: H183/L072 VL N30E (antibody, name in Kabat numbering, V domains shown)
VH: B1 VH
VL: B1 VL with A32M, N35E
notes: Dual-Ig
B28: H183/L072 VL M27eW (antibody, name in Kabat numbering, V domains shown)
VH: B1 VH
VL: B1 VL with A32W
notes: Dual-Ig
B29: H183/L072 VL N28Y (antibody, name in Kabat numbering, V domains shown)
VH: B1 VH
VL: B1 VL with A32M, N33Y
notes: Dual-Ig
B30: H183/L072 VL M27eT (antibody, name in Kabat numbering, V domains shown)
VH: B1 VH
VL: B1 VL with A32T
notes: Dual-Ig
B31: H183/L072 VL N28L (antibody, name in Kabat numbering, V domains shown)
VH: B1 VH
VL: B1 VL with A32M, N33L
notes: Dual-Ig
B32: H183/L072 VL N30L (antibody, name in Kabat numbering, V domains shown)
VH: B1 VH
VL: B1 VL with A32M, N35L
notes: Dual-Ig
B33: H183/L072 VL N28A (antibody, name in Kabat numbering, V domains shown)
VH: B1 VH
VL: B1 VL with A32M, N33A
notes: Dual-Ig
B34: H183/L072 VL N30A (antibody, name in Kabat numbering, V domains shown)
VH: B1 VH
VL: B1 VL with A32M, N35A
notes: Dual-Ig
B35: H183/L072 VL N28K (antibody, name in Kabat numbering, V domains shown)
VH: B1 VH
VL: B1 VL with A32M, N33K
notes: Dual-Ig
B36: H183/L072 VL M27eY (antibody, name in Kabat numbering, V domains shown)
VH: B1 VH
VL: B1 VL with A32Y
notes: Dual-Ig
B37: H183/L072 VL N28E (antibody, name in Kabat numbering, V domains shown)
VH: B1 VH
VL: B1 VL with A32M, N33E
notes: Dual-Ig
B38: H183/L072 VL N30G (antibody, name in Kabat numbering, V domains shown)
VH: B1 VH
VL: B1 VL with A32M, N35G
notes: Dual-Ig
B39: H183/L072 VL M27eS (antibody, name in Kabat numbering, V domains shown)
VH: B1 VH
VL: B1 VL with A32S
notes: Dual-Ig
B40: H183/L072 VL M27eL (antibody, name in Kabat numbering, V domains shown)
VH: B1 VH
VL: B1 VL with A32L
notes: Dual-Ig
B41: H183/L072 VL N28S (antibody, name in Kabat numbering, V domains shown)
VH: B1 VH
VL: B1 VL with A32M, N33S
notes: Dual-Ig
B42: H183/L072 VL N30P (antibody, name in Kabat numbering, V domains shown)
VH: B1 VH
VL: B1 VL with A32M, N35P
notes: Dual-Ig
B43: H183/L072 VL M27eG (antibody, name in Kabat numbering, V domains shown)
VH: B1 VH
VL: B1 VL with A32G
notes: Dual-Ig
B44: H183/L072 VL N30D (antibody, name in Kabat numbering, V domains shown)
VH: B1 VH
VL: B1 VL with A32M, N35D
notes: Dual-Ig
B45: H183/L072 VL M27eR (antibody, name in Kabat numbering, V domains shown)
VH: B1 VH
VL: B1 VL with A32R
notes: Dual-Ig
B46: H183/L072 VL M27eK (antibody, name in Kabat numbering, V domains shown)
VH: B1 VH
VL: B1 VL with A32K
notes: Dual-Ig

target: T1, Human CD137 ECD (human); test: Biacore SPR, vs parent H183/L072
T1 construct: entry includes C-terminal His-tag and biotin acceptor peptide; also called human CD137 extracellular domain; 4-1BB
T1 sequence (chain, as listed by the source limits assumed): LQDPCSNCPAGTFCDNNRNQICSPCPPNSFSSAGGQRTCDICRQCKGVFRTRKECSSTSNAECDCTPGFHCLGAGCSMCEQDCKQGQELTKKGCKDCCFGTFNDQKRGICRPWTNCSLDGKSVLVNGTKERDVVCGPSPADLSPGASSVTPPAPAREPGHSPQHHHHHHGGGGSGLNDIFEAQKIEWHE

Row | fold change of affinity [fold] | Binder
1 | 1 | B1
2 | 1 | B2
3 | 0.8 | B3
4 | 0.3 | B4
5 | 1 | B5
6 | 0.4 | B6
7 | 0.5 | B7
8 | 0.4 | B8
9 | 0.9 | B9
10 | 0.4 | B10
11 | 0.7 | B11
12 | 0.4 | B12
13 | 0.9 | B13
14 | 0.3 | B14
15 | 1.8 | B15
16 | 0.8 | B16
17 | 0.4 | B17
18 | 0.9 | B18
19 | 0.4 | B19
20 | 0.3 | B20
21 | 0.6 | B21
22 | 0.5 | B22
23 | 0.3 | B23

Row | fold change of affinity [fold] | Binder
24 | 0.7 | B24
25 | 1 | B25
26 | 0.9 | B26
27 | 0.1 | B27
28 | 0.7 | B28
29 | 0.4 | B29
30 | 0.9 | B30
31 | 0.3 | B31
32 | 0.3 | B32
33 | 0.4 | B33
34 | 0.7 | B34
35 | 0.3 | B35
36 | 0.7 | B36
37 | 0.2 | B37
38 | 0.9 | B38
39 | 0.9 | B39
40 | 0.8 | B40
41 | 0.5 | B41
42 | 0.4 | B42
43 | 0.7 | B43
44 | 0.1 | B44
45 | 1 | B45
46 | 1.1 | B46
